In patent US20190275133A1:

Target: IL-2Rαβ (UniProt P01589)
Experiment: in vitro binding affinity against IL-2 as a standard (Example 2: SPR, Biacore T-100, receptor-Fc captured, EC50 of RU against concentration)

Chain of UniProt P01589 (P01589 22-240 limits assumed): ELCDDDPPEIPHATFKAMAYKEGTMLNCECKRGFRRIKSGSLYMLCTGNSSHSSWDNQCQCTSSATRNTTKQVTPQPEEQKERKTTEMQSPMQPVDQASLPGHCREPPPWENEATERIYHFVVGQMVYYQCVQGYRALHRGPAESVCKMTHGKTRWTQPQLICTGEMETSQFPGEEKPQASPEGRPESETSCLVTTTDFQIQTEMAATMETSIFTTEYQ

Substance: RSLAIL-2 (multiPEGylated recombinant human IL-2 with the aldesleukin sequence; composition of primarily 4-mers, 5-mers and 6-mers of releasably attached mPEG2-C2-fmoc-20kD) (from UniProt P60568 22-153) (ligand)
- fold decrease in affinity relative to IL-2: 60 fold
